Laboratory results from paper PMC2173041.

Molecular target: Notch receptor (Drosophila) (UniProt P07207)
Experiment: competitive cell aggregation assay

Sequence of UniProt P07207 (P07207 53-2703): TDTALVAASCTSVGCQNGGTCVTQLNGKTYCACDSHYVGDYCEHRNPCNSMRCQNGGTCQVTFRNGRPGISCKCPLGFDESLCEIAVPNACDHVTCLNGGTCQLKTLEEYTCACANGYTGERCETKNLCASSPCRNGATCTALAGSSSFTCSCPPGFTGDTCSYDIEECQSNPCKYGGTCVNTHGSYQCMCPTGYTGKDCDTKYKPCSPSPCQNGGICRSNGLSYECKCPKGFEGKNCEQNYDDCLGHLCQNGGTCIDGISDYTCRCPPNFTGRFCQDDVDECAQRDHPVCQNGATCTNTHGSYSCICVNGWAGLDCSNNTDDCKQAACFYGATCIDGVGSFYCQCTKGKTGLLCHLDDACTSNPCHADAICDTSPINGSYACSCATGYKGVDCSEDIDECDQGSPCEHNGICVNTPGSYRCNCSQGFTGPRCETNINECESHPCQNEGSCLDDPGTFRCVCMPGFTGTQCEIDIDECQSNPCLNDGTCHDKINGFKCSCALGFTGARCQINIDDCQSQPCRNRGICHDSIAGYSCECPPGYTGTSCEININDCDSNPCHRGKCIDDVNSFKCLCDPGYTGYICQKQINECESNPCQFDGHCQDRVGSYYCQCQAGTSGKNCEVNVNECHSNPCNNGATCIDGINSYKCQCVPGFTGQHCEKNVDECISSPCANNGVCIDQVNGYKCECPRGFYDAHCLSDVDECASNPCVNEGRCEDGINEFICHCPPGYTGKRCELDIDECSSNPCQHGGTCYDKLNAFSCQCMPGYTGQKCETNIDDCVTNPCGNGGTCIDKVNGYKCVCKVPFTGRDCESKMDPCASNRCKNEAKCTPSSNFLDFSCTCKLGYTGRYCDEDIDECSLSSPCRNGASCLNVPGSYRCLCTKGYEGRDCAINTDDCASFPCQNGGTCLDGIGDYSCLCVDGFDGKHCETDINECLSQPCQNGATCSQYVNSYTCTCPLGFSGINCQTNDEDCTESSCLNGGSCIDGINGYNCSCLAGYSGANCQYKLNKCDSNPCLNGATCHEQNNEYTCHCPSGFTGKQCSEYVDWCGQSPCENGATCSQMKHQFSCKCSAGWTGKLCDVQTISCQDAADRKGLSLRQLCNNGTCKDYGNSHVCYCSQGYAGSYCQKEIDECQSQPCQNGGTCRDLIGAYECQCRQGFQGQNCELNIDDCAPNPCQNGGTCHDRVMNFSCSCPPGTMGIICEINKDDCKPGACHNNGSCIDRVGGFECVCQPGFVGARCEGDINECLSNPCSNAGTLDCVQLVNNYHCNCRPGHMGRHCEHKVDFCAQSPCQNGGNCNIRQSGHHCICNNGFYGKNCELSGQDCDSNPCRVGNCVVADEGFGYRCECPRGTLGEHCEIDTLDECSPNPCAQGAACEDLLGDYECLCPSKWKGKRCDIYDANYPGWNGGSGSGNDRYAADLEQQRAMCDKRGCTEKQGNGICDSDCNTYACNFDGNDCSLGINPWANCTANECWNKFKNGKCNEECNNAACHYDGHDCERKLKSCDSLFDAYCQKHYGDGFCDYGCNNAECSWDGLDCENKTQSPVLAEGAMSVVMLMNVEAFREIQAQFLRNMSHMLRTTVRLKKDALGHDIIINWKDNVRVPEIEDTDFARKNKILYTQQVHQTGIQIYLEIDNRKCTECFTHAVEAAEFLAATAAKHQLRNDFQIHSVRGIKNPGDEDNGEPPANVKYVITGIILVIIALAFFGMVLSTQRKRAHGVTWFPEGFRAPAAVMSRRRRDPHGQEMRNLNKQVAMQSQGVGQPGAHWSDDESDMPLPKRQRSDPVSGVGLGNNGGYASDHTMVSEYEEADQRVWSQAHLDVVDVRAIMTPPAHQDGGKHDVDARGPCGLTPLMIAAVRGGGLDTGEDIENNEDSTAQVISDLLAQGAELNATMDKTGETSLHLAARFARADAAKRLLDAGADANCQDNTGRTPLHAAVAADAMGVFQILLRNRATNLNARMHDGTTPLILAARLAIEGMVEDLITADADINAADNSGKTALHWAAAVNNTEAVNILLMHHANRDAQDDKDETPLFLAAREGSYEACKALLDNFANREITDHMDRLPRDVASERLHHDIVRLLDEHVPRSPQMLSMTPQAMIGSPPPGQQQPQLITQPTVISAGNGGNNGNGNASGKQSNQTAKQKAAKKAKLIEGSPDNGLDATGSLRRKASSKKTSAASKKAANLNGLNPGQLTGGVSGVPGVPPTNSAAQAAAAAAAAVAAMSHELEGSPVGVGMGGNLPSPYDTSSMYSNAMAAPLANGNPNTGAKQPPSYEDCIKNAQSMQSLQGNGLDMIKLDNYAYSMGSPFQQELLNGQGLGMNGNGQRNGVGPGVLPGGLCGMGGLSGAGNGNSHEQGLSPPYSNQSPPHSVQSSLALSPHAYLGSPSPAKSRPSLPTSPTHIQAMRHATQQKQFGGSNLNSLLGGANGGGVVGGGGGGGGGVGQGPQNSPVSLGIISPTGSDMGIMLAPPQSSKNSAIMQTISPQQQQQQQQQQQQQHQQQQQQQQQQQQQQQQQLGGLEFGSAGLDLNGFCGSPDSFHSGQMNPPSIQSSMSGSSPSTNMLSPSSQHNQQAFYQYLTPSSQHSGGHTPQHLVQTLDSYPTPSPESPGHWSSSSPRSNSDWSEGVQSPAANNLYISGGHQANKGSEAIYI

percent inhibition of aggregation at >0.5 μM DlEC: < 20%
Substance: DlEC, extracellular fragment of Delta released by cleavage (from UniProt P10041 19-581) (domain or fragment)
